Assay: yeast display, Sf9 membrane polyspecificity reagent, FACS + sequencing; frameworks hold sequencing errors
How it was run: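 In a synthetic yeast display library (Saccharomyces cerevisiae BJ5465), nanobody expression was induced with galactose for 36–48 hours. FACS gates were set low and high (top ~1%) using anti-HA fluorescence for expression and streptavidin fluorescence for binding of the Sf9 membrane reagent. Each polyreactivity label is drawn from the gate of origin.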

Question: For “QVQLVESGGGIVQAGGSLRLSCAASGYTFRGNVMGWYRQAPGKERELVAAISRSGGSTYYADSVKGRFTISRDNAKNTVYLQMYCLKPADTAVHYCAKKPTSTYQQDSPRWSDYWGQGTQVTVSS”, which “polyreactivity (PSR sort gate)” value is on record?
Answer: Its value is “high polyreactivity”.

Question: Which “polyreactivity (PSR sort gate)” value does the source give for “QVQLVESGGGIVQAGGSLRLSCAATGRTFGYNAMGWYRQAPGKERELVAAIRTIGDSTYYADSVKGRFTISRDNAKNTVYLQMNSLKPEDTAVYYCAARKLRSRYDYWGQGTQVTVSS” here?
Answer: The value was “high polyreactivity”.

Question: With “QVQLVESGGGIVQAGGSLRLSCAGSGRTFLWNAMGWYRQAPGKERELVARINLSGGRTYYADSVKGRFTISRDNAKKTVNLQMNSLKPEDTAFYYCAATVVRYRRDSWGQGTQVTVSS” as the sequence, how does the “polyreactivity (PSR sort gate)” value read?
Answer: The value was “low polyreactivity”.

Question: Which “polyreactivity (PSR sort gate)” value does the source give for “QVQLVESGGGIVQAGGSLRLSCPASGSIFDTYAMGWYRPAPGKEREMVASWSGGSTYYADSVKGRFTISRDNAKNTVYLQMISLKPEDTAVDYCAKDYYVQPPGTRDDYWGQGSQVTVSS” here?
Answer: Its value is “low polyreactivity”.

Question: With “QVQLVESGGGIVQAGGSLRLSFAASGSIFEINALGWYRQAPGKERELVAAITGSGGSTHYADSVKGRFTISRDTAKNTVYLQMNSLKPEDTAVYYCARTQRYDYGYDYWGQGTQVTVSS” as the sequence, how does the “polyreactivity (PSR sort gate)” value read?
Answer: Its value is “low polyreactivity”.

Question: Which “polyreactivity (PSR sort gate)” value does the source give for “QVQLVESGGGIVQAGGSLRLSIAASGNILNGNVMGWSRPEPGKERELVAAITSGGDTYYADSVKGRFTISRDNAKNTVYFQMNSLKPEDTAVYYCAADRPGQPKYEYWGQGTQVTVSS” here?
Answer: The value was “low polyreactivity”.

Question: With “QVQLVESGGGIVQAGGSLRLSSAASGFIFRYYAMGWYRQARGNEREWVAAISSGGRTSYADSVKGRFTISRDNAKNTVYLQMNSLTPEDTAVYYCAADRWRCLFYYGNDYWGQGTQVTVSS” as the sequence, how does the “polyreactivity (PSR sort gate)” value read?
Answer: Its value is “high polyreactivity”.

Question: Which “polyreactivity (PSR sort gate)” value does the source give for “QVQLVESGGGIVQAGGSLRLSSAASGNKFSLNGMGWYRQAPGKEREFVAAITWSVGSRYYADSVKGRLTISRDNAKHTVYLPMNILKPEDTAVYYCAATVSDLYKIEYYYWGQGTQVSVSS” here?
Answer: Its value is “low polyreactivity”.

Question: Which “polyreactivity (PSR sort gate)” value does the source give for “QVQLVESGGGIVQAGGSLRLSWAASGRNFLDYTMGWYRQAHGKERELVAAIRTSAGSTYYADSVKGRFTISRDNAKNTVYLQMNILKPEYTAVYYCAAEYYVQYYYRYDYWGQGTQVTVSS” here?
Answer: Its value is “low polyreactivity”.

Question: For “QVQLVESGGGIVQAGGSLSLSCAASGRSFRYYAMGWYRQAPGKEREMVAAIDTSSGSTYYADSVKGRFTISRDNAMNTVFLQMNSLKPEDTAVYYCNATWWIPLIYDYWGQGTHVTVSS”, which “polyreactivity (PSR sort gate)” value is on record?
Answer: The value was “low polyreactivity”.

Question: For “QVQLVESGGGIVQAGRSLRLRCAASGSTFTPYGMGWYRQAPGKESELVAAITVSGGRTYYADSVKGRFTISRDNANNTVSLVMNSLKPEDTAVYYCAAVYLRADGDYDYWGQGTQVNVSS”, which “polyreactivity (PSR sort gate)” value is on record?
Answer: Its value is “low polyreactivity”.

Question: Which “polyreactivity (PSR sort gate)” value does the source give for “QVQLVESGGGIVQAGVSLRLSCAASGINIDYYAMGWYRQAPGKERELVAAITSGGSTSYADSVKGRFTISRDNAKNTVYLQMNSLKAEDTAVYYCNTEPSGYESGYWGQGTQVTVSS” here?
Answer: The value was “low polyreactivity”.

Question: For “QVQLVESGGGIVQEGGSLRLSCAASGSTFDQNGMGGYRQAPGKERELVATISTSAGTYYADSVKGRFTISRDNAKNTVYLQMNSLKPEDTAVYYCNADLGGQYKEFDYWGQGTQVTVSS”, which “polyreactivity (PSR sort gate)” value is on record?
Answer: The value was “low polyreactivity”.

Question: Which “polyreactivity (PSR sort gate)” value does the source give for “QVQLVESGGGIVQSGGSLRLSCAASGRTFSSYAMGRYRQAPGKEMALVAAINRGGGSTYYADSVKGRFTISRDNAKNTVYLQMNSLKPEDTAVYYCNARSKLTYEYDYWGQGTQVTVSS” here?
Answer: The value was “high polyreactivity”.

Question: Which “polyreactivity (PSR sort gate)” value does the source give for “QVQLVESGGGKLQAGGSLRLSCAASGIILYVYAMGWYRQAPGKARELVAAITWSGGSTYYADSEKGRFTISRDNAKNTVYLQMNSLKPEDTAVYYCAVDVHTSADASLPQEYDYWGPGTQVTVSS” here?
Answer: The value was “low polyreactivity”.

Question: For “QVQLVESGGGKVQAGGSLRLSCAASGRIFYLNAMGWYRQAPGKEREFVAAITRNGGNTYYADSVKGRFTISRDNAKNTVYLQMNSLKPEDTAVYYCNAKYWPFSRWYYYWGQGTQVTVSS”, which “polyreactivity (PSR sort gate)” value is on record?
Answer: Its value is “high polyreactivity”.

Question: Which “polyreactivity (PSR sort gate)” value does the source give for “QVQLVESGGGLDPAGGSLRLSCAASGITFSYYAMGWYRQAPGKERELVAAISSSGSTYYADSVKGRFTISRDNAKNTDYLQMNSLKPEDTAVYYCAAEIRYYEYDYWGQGTQVTVSS” here?
Answer: The value was “low polyreactivity”.

Question: For “QVQLVESGGGLDQAAGSLRLSCAASGSNFQWYTMGWYRQAPGKERELVAAITWSGASTYYADSVKGRFTISRDNAKNTVYLQMNSLKPEDTAVYYCAADWRRGTGFYYWGQGTQVTVSS”, which “polyreactivity (PSR sort gate)” value is on record?
Answer: Its value is “high polyreactivity”.

Question: For “QVQLVESGGGLDQAGCSLRISCAASGRIFIQNTMGWYRQAPGKERELVAAITRSGGRTYYADSVKGRFTFSRDNAKNTVYLQMNSLKPEDTAVYYCNRRPATRAYLYDYWGQGTQVTVSS”, which “polyreactivity (PSR sort gate)” value is on record?
Answer: The value was “high polyreactivity”.

Question: With “QVQLVESGGGLDQAGGCLRLSSAASGIIFYYNRMGCDRQAPGKERDLVADISGDGSTNYADSVKGRFTISRDNAKNTLYLQINSLKPDDTAFYYCNSDDIFRPRDDLYDYWGQGTQVTVSS” as the sequence, how does the “polyreactivity (PSR sort gate)” value read?
Answer: Its value is “low polyreactivity”.

Question: For “QVQLVESGGGLDQAGGRLRLSCAASGFTIRDNAMGWYRQAPGKEMELVAAISRSGDSTNYADSVKGRFTISRDNAKNTVYLQMNSLKPEDTAVYYSAAKRRYTTYDYWGQGTLVTVSS”, which “polyreactivity (PSR sort gate)” value is on record?
Answer: Its value is “high polyreactivity”.

Question: With “QVQLVESGGGLDQAGGSLRLICAASGRIFVYYTMVWYRQAPGKERELVAAITGSGGSTYYADSVKGRFTISRDNAKNTVYLQMNSLKPEDTAVYYCAVYDSYRSRTHRYPATFAYGSWGQGNQVTVSS” as the sequence, how does the “polyreactivity (PSR sort gate)” value read?
Answer: Its value is “high polyreactivity”.

Question: For “QVQLVESGGGLDQAGGSLRLSCAASASIFQRSAKCWYRQAPGKETELVAAITNGGGSTYYADSVKGRFTISRDNAMNTVYLQMNSLKPEDTAVYYCAKDGHSYYPWEYDYWVQGTQVTVSS”, which “polyreactivity (PSR sort gate)” value is on record?
Answer: The value was “low polyreactivity”.

Question: With “QVQLVESGGGLDQAGGSLRLSCAASGFIFVRNAMGWYRQAPGKERELVAAITGRGGRTYYADSVKGRFTISRDNAKNTVYLQMNSLKPEDTAVYYCAKDSPDDHFGYWGQGTQVTVSS” as the sequence, how does the “polyreactivity (PSR sort gate)” value read?
Answer: Its value is “high polyreactivity”.

Question: With “QVQLVESGGGLDQAGGSLRLSCAASGFTFARYTMGWYRQAPGKEREFVAAISWSGGRTYYADSVKGRFTISRDNAKNTVYLQMNSLKPEDTAVYYCAARRKTTKYDYWGQGTQVTVSS” as the sequence, how does the “polyreactivity (PSR sort gate)” value read?
Answer: The value was “high polyreactivity”.

Question: With “QVQLVESGGGLDQAGGSLRLSCAASGFTSGYNVLGWYRQAPGTARELVAAISWRGTSTYYADSVKGRFTISRDNAKNTVYLQMNSLKPEDTAVYYCAARQRWYWRGYDYWGQGTQVTVSS” as the sequence, how does the “polyreactivity (PSR sort gate)” value read?
Answer: The value was “high polyreactivity”.

Question: Which “polyreactivity (PSR sort gate)” value does the source give for “QVQLVESGGGLDQAGGSLRLSCAASGGIFYHNAMGWYRQAPGKERELVAVISWSRTRTYYADSVKGRFTISRDNAKNTVYLQMNILTPDDTAVYYCAASPDPYWVRMDYWGQGTQVNVSS” here?
Answer: The value was “high polyreactivity”.

Question: With “QVQLVESGGGLDQAGGSLRLSCAASGGTFSNYAMGWYRQATGKERELVAAISESGGSTYYADSVKGRFTISRDNAKNTVYLQMNSLKPEDTAVYYCAVGTRFYVPRRFDYWGQGSQVTVSS” as the sequence, how does the “polyreactivity (PSR sort gate)” value read?
Answer: Its value is “high polyreactivity”.

Question: For “QVQLVESGGGLDQAGGSLRLSCAASGIIFRNYAMGWYRQAPGKERELVATITGDGGSTYYADSVKGRFTISRDNAKNTVYLQMNSLKPEDTAVYYCNADVSKRGWTTYWYGYGYYYWGQGTQVTVSS”, which “polyreactivity (PSR sort gate)” value is on record?
Answer: The value was “low polyreactivity”.

Question: Which “polyreactivity (PSR sort gate)” value does the source give for “QVQLVESGGGLDQAGGSLRLSCAASGIIFVKYTMGWYRQAPGTERELVAAISRSGGSTYYADSVKGRFTISRDNAKNTVYLQMNSLKPEDTAVYYCNAVSRKVYPGPMDYWGQGTQVTVSS” here?
Answer: The value was “high polyreactivity”.

Question: Which “polyreactivity (PSR sort gate)” value does the source give for “QVQLVESGGGLDQAGGSLRLSCAASGIIFWYNARGWYRQAPGKERELVAAINYGGSTNYADSVKGRFTISRDNAKNTVYLQMNSLKQEDTAVDYCNADRSVIHRGYIWQPGRNDYWGQGTQVNVSS” here?
Answer: Its value is “low polyreactivity”.

Question: Which “polyreactivity (PSR sort gate)” value does the source give for “QVQLVESGGGLDQAGGSLRLSCAASGITFDYYAIGWYRQAPGKERELVAAISRAGSTNYADSVKGRFTISRDNAKNTVYLQMNSLKPEDTAVYYCNNGYHSWSRLSQFGWSYDYWGQGTQVTVSS” here?
Answer: Its value is “high polyreactivity”.

Question: Which “polyreactivity (PSR sort gate)” value does the source give for “QVQLVESGGGLDQAGGSLRLSCAASGITFGFNAMGWYRQAPGIERELVAAITYRGGSTYYADSVKGRFTISGDNAKNTVYLQMNSLKPEDTAVYYCAADIGRHTDNYDPRYDYWGQGTQVTVSS” here?
Answer: Its value is “low polyreactivity”.

Question: For “QVQLVESGGGLDQAGGSLRLSCAASGITFTSYAMGWYRQAPGTEREFVAAISWTDTSTYYADSVKGRFTISRDNAKNTVYLQMNSLKPEDTAVYYCADEYEVGYFGYEYWGQGTQVTVSS”, which “polyreactivity (PSR sort gate)” value is on record?
Answer: The value was “high polyreactivity”.

Question: Which “polyreactivity (PSR sort gate)” value does the source give for “QVQLVESGGGLDQAGGSLRLSCAASGITIIGYAMGWYRQAHGKERELVASITSGANTNYADSVKGRFTISRANAKNTVYFQMNSLKPEATAVYYCAAPEHGTYANILGEPLDYWGQGSQVTVSS” here?
Answer: The value was “low polyreactivity”.

Question: With “QVQLVESGGGLDQAGGSLRLSCAASGLIFKLYDMGWSRQAPGKERELVATISRGTSTYYADSVKGRFTISRDNAKNTVDLQMNSLKPEDTAVYYCNARLDYGRAFPLFKYISGMYYWGQGTQVTVSS” as the sequence, how does the “polyreactivity (PSR sort gate)” value read?
Answer: The value was “low polyreactivity”.

Question: Which “polyreactivity (PSR sort gate)” value does the source give for “QVQLVESGGGLDQAGGSLRLSCAASGLIFQVYAMGWYRQAPGKERELVAAISRSGGRTYNADSVKGRFTISRDNAKNTVYLQMNSLKPEDTAVYYCAAESYVDYPRWYDYWGQGTQVTVSS” here?
Answer: The value was “high polyreactivity”.

Question: With “QVQLVESGGGLDQAGGSLRLSCAASGNIFPAYAMGWYRQAPGKERELVAAISKSGGRTYYADSVKGRFTISRDNAKKTVYLVMNSLKPEDSAVYFCAARDRRYQWTSWYDYWGQGTQVTVSS” as the sequence, how does the “polyreactivity (PSR sort gate)” value read?
Answer: Its value is “high polyreactivity”.

Question: Which “polyreactivity (PSR sort gate)” value does the source give for “QVQLVESGGGLDQAGGSLRLSCAASGNIFSDSTMGWYRQAPGKEIELVAAISGDGGTTYYADSVKGRFTISRDNAKHTVYLQMNSLKPEDTAVYFCAGDGYYDAYDQFFIVYYEYDYWGQGTQVTVSS” here?
Answer: The value was “low polyreactivity”.

Question: For “QVQLVESGGGLDQAGGSLRLSCAASGNIVYNGMGWYRQAPGKERELVAAIRGSGGRTYADSVKGRFTISRDNAKNTVYLQMNSLKPEDTAVYYCATRRWYAYGVYYWGQGTQVTVSS”, which “polyreactivity (PSR sort gate)” value is on record?
Answer: The value was “high polyreactivity”.

Question: Which “polyreactivity (PSR sort gate)” value does the source give for “QVQLVESGGGLDQAGGSLRLSCAASGRIFPFNAMGWYRQAAGKERELVASIRSTGGNTYYADSVKGRFTISRDNAKNTVYLQMISLIPEDSAVYYWGQGTQVTVSS” here?
Answer: The value was “low polyreactivity”.

Source: the nanobody polyreactivity screen of Harvey et al. (2022)
